What all share (details): both partners purified
In assay [1] the target is T1, human CRM1 (HsCRM1), wild type (human, UniProt O14980 1-1071).
T1 construct: human CRM1 / Exportin-1 (XPO1); Always used together with RanGTP (ScRanGTP in the pull-downs); also called Exportin-1; XPO1
Put plainly: differential bleaching; competition titration of MBP-NES to FITC-PKI NES and CRM1 with excess RanGTP; triplicate; fitted with a set of direct titrations.

Assay [2] deals with engineered ScCRM1(K579A) mutant (S. cerevisiae, UniProt P30822 1-1058, △377–413 | 537DLTVK541 to GLCEQ | V441D | K579A). Kind of assay: crystal structure; NES peptide bound to the engineered ScCRM1-RanGppNHp-Yrb1p complex; crystallised as in Fung et al., 2015.
Assay [3] deals with engineered ScCRM1 (residues 1-1058, △377-413, 537DLTVK541 to GLCEQ, V441D) (S. cerevisiae, UniProt P30822 1-1058, △377–413 | 537DLTVK541 to GLCEQ | V441D). Described as above.
Assay [4] deals with T1, human CRM1 (HsCRM1), wild type. Put plainly: pull-down; ~10 µg immobilized GST-NES, 2.5 µM HsCRM1 and 7.5 µM ScRanGTP in 200 µL.
Assay [5] deals with T2, human CRM1 mutant HsCRM1(K568M) (human, UniProt O14980 1-1071, K568M).
T2 construct: human CRM1 / Exportin-1 (XPO1) with K568M; Used together with RanGTP
Put plainly: pull-down; ~5 µg immobilized GST-NESs, 7.5 µM ScRanGTP and 2.5 µM HsCRM1 (wild type or mutant) in 200 µL.

Assay [6] concerns the target T3, human CRM1 mutant HsCRM1(K568A) (human, UniProt O14980 1-1071, K568A).
T3 construct: human CRM1 / Exportin-1 (XPO1) with K568A; Used together with RanGTP
The description is as above.

In assay [7] the target is T1, human CRM1 (HsCRM1), wild type. Kind of assay: pull-down; ~5 µg immobilized GST-NESs, 500 nM HsCRM1 (wild type or mutant) and 1.5 µM ScRanGTP in 1 mL.
Assay [8] concerns the target T2, human CRM1 mutant HsCRM1(K568M). Described as above.
Assay [9] deals with T3, human CRM1 mutant HsCRM1(K568A). The assay is described as above.

These results are taken from article PMC5358978, “Nuclear export receptor CRM1 recognizes diverse conformations in nuclear export signals” (eLife, 2017).

T1 sequence (O14980 whole entry): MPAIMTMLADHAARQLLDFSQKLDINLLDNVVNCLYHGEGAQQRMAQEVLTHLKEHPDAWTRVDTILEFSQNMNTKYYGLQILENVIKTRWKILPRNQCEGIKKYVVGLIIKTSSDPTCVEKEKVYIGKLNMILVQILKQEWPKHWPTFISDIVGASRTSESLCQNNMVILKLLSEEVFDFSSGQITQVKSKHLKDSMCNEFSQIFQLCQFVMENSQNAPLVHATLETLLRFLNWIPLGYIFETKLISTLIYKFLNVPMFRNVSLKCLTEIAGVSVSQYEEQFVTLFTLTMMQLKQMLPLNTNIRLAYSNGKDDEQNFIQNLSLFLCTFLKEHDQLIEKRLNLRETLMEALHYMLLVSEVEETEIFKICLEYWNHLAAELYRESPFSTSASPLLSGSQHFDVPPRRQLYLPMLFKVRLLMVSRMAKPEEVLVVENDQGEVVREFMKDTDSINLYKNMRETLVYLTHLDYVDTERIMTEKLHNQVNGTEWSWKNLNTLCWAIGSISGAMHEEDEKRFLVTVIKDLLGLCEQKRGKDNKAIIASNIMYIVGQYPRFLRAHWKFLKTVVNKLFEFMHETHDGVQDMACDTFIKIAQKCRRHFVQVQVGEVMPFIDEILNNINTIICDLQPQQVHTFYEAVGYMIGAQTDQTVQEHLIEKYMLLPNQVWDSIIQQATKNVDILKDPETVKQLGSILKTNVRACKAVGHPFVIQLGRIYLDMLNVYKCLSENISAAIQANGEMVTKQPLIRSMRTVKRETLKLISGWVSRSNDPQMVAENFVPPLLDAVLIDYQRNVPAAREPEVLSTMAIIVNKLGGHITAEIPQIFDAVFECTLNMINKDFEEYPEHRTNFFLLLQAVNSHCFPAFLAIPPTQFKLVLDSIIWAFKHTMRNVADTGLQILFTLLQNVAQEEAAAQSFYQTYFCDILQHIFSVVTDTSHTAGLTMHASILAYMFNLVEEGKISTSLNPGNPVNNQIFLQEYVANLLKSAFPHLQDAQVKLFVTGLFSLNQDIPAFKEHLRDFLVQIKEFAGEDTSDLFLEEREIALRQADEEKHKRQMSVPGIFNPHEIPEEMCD
T3 sequence (O14980 whole entry K568A): as the sequence (O14980 whole entry) above, with K568A counted along it
T2 sequence (O14980 whole entry K568M): as the sequence (O14980 whole entry) above, with K568M counted along it

B1: MBP-HDAC5 NES (peptide)
chain: EAETVSAMALLSVG
notes: Histone deacetylase 5 (HDAC5), residues 1082-1095; also called HDAC^NES; MBP-NES; not shown: MBP, N-terminal, kept
With B1, the binding result in assay [1] is reported as “binds”.

B2: Hxk2 peptide (crystallised, false positive NES) (peptide)
peptide: DVPKELMQQIENFEKIFTV
notes: Hexokinase-2 (Hxk2), residues 18-36; Extra N-terminal residues such as those printed for mDia2 (GGSY) and FMRP-1b (GGS) may be present; source: expressed and purified as described in Fung et al., 2015
In the case of B2, in assay [2], the binding result is listed as “binds”.

B3: CDC7 NES peptide (crystallised) (peptide)
peptide: QDLRKLCERLRGMDSSTP
notes: cell division cycle 7-related protein kinase (CDC7), residues 456-473; Extra N-terminal residues such as those printed for mDia2 (GGSY) and FMRP-1b (GGS) may be present; source: expressed and purified as described in Fung et al., 2015
In the case of B3, the binding result in [3] is on record as “binds”.

B4: mDia2 NES peptide (crystallised) (peptide)
peptide: GGSYSVPEVEALLARLRAL
notes: residues printed before the NES in the crystallised peptide; not of mDia2; mouse diaphanous homolog 3 (mDia2), residues 1179-1193; source: expressed and purified as described in Fung et al., 2015
Turning to B4, the binding result in [3] is reported as “binds”.
NSNELALKLAGLDANKT [PKI NES(Φ4A) mutant (MBP fusion)]: in assay [1], the Kd (usually the concentration at which binding is half-saturated) came out at 150 µM.

B5: FMRP NES peptide (crystallised) (peptide)
peptide: YLKEVDQLRLERLQI
notes: fragile X mental retardation protein (FMRP), residues 423-437; Extra N-terminal residues such as those printed for mDia2 (GGSY) and FMRP-1b (GGS) may be present; source: expressed and purified as described in Fung et al., 2015
Take B5: the binding result in [3] is listed as “binds”.

B6: GST-CDC7 NES (peptide)
chain: QDLRKLCERLRGMDSSTP
notes: cell division cycle 7-related protein kinase (CDC7), residues 456-473; source: as described in Fung et al., 2015; not shown: GST, N-terminal, kept
Turning to B6, the binding result in [4] was “binds”.

B7: GST-DEAF1 peptide (false positive NES) (peptide)
chain: SWLYLEEMVNSLLNTAQQ
notes: Deformed Epidermal Autoregulatory Factor 1 homolog (DEAF1), residues 452-469; also called GST-NESs; source: as described in Fung et al., 2015; not shown: GST, N-terminal, kept
Regarding B7, the binding result in assay [5] and in [6] was “binds” in each case.

B8: GST-Hxk2 peptide (false positive NES) (peptide)
chain: DVPKELMQQIENFEKIFTV
notes: Hexokinase-2 (Hxk2), residues 18-36; also called GST-NESs; source: as described in Fung et al., 2015; not shown: GST, N-terminal, kept
For B8, in assay [6], the binding result is “binds”.

B9: GST-X11L2 NES (peptide)
chain: SSLQELVQQFEALPGDLV
notes: source: as described in Fung et al., 2015; not shown: GST, N-terminal, kept
On to B9, for which the binding result in assay [7], in [8] and in assay [9] was “binds” in each case.

B10: MBP-CDC7 NES (peptide)
chain: QDLRKLCERLRGMDSSTP
notes: cell division cycle 7-related protein kinase (CDC7), residues 456-473; also called MBP-NES; not shown: MBP, N-terminal, kept
Turning to B10, in [1], the binding result is “binds”.

B11: DEAF1 peptide (crystallised, false positive NES) (peptide)
peptide: SWLYLEEMVNSLLNTAQQ
notes: Deformed Epidermal Autoregulatory Factor 1 homolog (DEAF1), residues 452-469; Extra N-terminal residues such as those printed for mDia2 (GGSY) and FMRP-1b (GGS) may be present; also called DEAF^pep; source: expressed and purified as described in Fung et al., 2015
B11: the binding result in assay [2] is on record as “binds”.

B12: MBP-X11L2 NES (peptide)
chain: SSLQELVQQFEALPGDLV
notes: also called MBP-NES; not shown: MBP, N-terminal, kept
Turning to B12, the binding result in [1] is “binds”.

B13: MBP-SMAD4 NES (peptide)
chain: YERVVSPGIDLSGLTLQ
notes: Mothers against decapentaplegic homolog 4 (SMAD4), residues 133-149; also called MBP-NES; not shown: MBP, N-terminal, kept
For B13, the binding result in [1] is on record as “binds”.

B14: X11L2 NES peptide (crystallised) (peptide)
peptide: SSLQELVQQFEALPGDLV
notes: Extra N-terminal residues such as those printed for mDia2 (GGSY) and FMRP-1b (GGS) may be present; source: expressed and purified as described in Fung et al., 2015
Turning to B14, the binding result in assay [3] is given as “binds”.

B15: HDAC5 NES peptide (crystallised) (peptide)
peptide: EAETVSAMALLSVG
notes: Histone deacetylase 5 (HDAC5), residues 1082-1095; Extra N-terminal residues such as those printed for mDia2 (GGSY) and FMRP-1b (GGS) may be present; also called HDAC^NES; source: expressed and purified as described in Fung et al., 2015
For B15, the binding result in [3] is on record as “binds”.

B16: MBP-Paxillin NES (peptide)
chain: RELDELMASLSDFKFMAQ
notes: Paxillin, residues 264-281; also called Pax^NES; MBP-NES; not shown: MBP, N-terminal, kept
As for B16, in assay [1], the binding result is listed as “binds”.

B17: Paxillin NES peptide (crystallised) (peptide)
peptide: RELDELMASLSDFKFMAQ
notes: Paxillin, residues 264-281; Extra N-terminal residues such as those printed for mDia2 (GGSY) and FMRP-1b (GGS) may be present; also called Pax^NES; source: expressed and purified as described in Fung et al., 2015
Consider B17, for which the binding result in assay [3] is given as “binds”.

B18: MBP-mDia2 NES (wild type) (peptide)
chain: SVPEVEALLARLRAL
notes: mouse diaphanous homolog 3 (mDia2), residues 1179-1193; also called wild type mDia2^NES; not shown: MBP, N-terminal, kept
Turning to B18, in [1], the Kd was 1.7 µM.

B19: MBP-FMRP NES (peptide)
chain: YLKEVDQLRLERLQI
notes: fragile X mental retardation protein (FMRP), residues 423-437; also called MBP-NES; not shown: MBP, N-terminal, kept
For the molecule B19, the binding result in assay [1] is recorded as “binds”.

B20: SMAD4 NES peptide (crystallised) (peptide)
peptide: YERVVSPGIDLSGLTLQ
notes: Mothers against decapentaplegic homolog 4 (SMAD4), residues 133-149; Extra N-terminal residues such as those printed for mDia2 (GGSY) and FMRP-1b (GGS) may be present; source: expressed and purified as described in Fung et al., 2015
As for B20, the binding result in assay [3] is recorded as “binds”.
